In patent WO2018007923A2 (dated 2018):

Legend:
[1] = molecular target: T1, pH4.0-treated TTR (human, UniProt P02766 21-147); assay: summary of Table 4; ELISA on pH4-TTR
[2] = molecular target: T1, pH4.0-treated TTR; assay: ELISA, pH4-TTR captured by anti-His
[3] = molecular target: TTR-V122I (fibrils and oligomeric aggregates) (UniProt P02766 21-147); assay: cell-based or functional assay
[4] = molecular target: T2, pH4.0-treated TTR (human, UniProt P02766 21-147); assay: summary of Table 4; ELISA on pH4-TTR; remark: listed apart in the source
[5] = molecular target: T2, pH4.0-treated TTR; assay: ELISA, pH4-TTR captured by anti-His; remark: listed apart in the source

B1: mouse monoclonal antibody 6C1 (antibody, V domains shown)
VH: EVQLVESGGGLVQPGGSLKLSCAASGFTFSNYYMSWVRQTPEKRLEWVAYISIDGNNIYHPDSVKGRFTISRDNAKNTLYLQMSSLKSEDTAMYYCARDSDYGYFDVWGTGTTVTVSS
VL: DVLMTQTPLSLPVSLGDQASISCRSSQSIVHSNGNTYLEWYLQKRGQSPKLLIYKVSKRFSGVPDRFSGSGSGTDFILKISRVEAEDLGVYYCFQGSHVPLTFGGGTKLELK
notes: also called m6C1; mis-TTR mAb 6C1
[1]
  Kd: 14.5 nM
[2]
  Kd: 16 nM

B2: mouse monoclonal antibody 14G8 (antibody, V domains shown)
VH: EVKLVESGGGLVQPGGSLKLSCAASGFTFSSYTMSWVRQTPEKRLELVAEINNSGDTTYYPDTVKGRFTISRDNAKNTLYLQMSSLKSEDTAMYYCARHYYYGGGYGGWFFDVWGTGTTVTVSS
VL: DIVMTQAAPSVPVTPGESVSISCRSNKSLLHSNGNTYLYWFLQRPGQSPQLLIYRVSNLASGVPDRFSGSGSGTAFTLRISRVEAEDVGVYYCMQHLEYPLTFGAGTKLELKR
[3]
  IC50 of inhibition of TTR-V122I fibrillation (ThT fluorescence): 28 µg/mL

B3: mouse monoclonal antibody 9D5 (antibody, V domains shown)
VH: EVKLVESGGGLVQPGGSLKLSCAASGFTFSSYTMSWVRQTPEKRLELVAEISNSGDTTYYPDTVKGRFTFSRDNAKNTLYLQMSSLKSEDTAMYYCARHYYYGGGYGGWFFDVWGTGTTVTVSS
VL: DIVMTQAAPSVPVTPGESVSISCRSSKSLLHSNGNTYLYWFLQRPGQSPQLLIYRVSNLASGVPDRFSGSGSGTAFTLRISRVEAEDVGVYYCMQHLEYPLTFGAGTKLELK
[4]
  Kd: 257 nM
[5]
  Kd: 282 nM
